In patent US20180291083A1 (IMMATICS BIOTECHNOLOGIES, published 2018):

Legend:
[1] = target: T1, human recombinant HLA-B*08:01 with b2m (human); assay: pMHC stability assay at 37 C, mean half-life of b2m on heavy chain, grade (T1/2 >2 h = +; >4 h = ++; >6 h = +++; >10 h = ++++)
T1 construct: Peptide-receptive MHC class I used in the pMHC stability assay by ImmunAware; also called MHC heavy chain and b2m
Procedure: The peptide-MHC stability for HLA-B*08:01 peptides was performed by ImmunAware (Copenhagen, Denmark). The data were obtained using a proximity based, homogenous, real-time assay to measure the dissociation of peptides from HLA class I molecules. First human recombinant HLA-B*08:01 and b2m were expressed in E. coli and purified in a series of liquid chromatography based steps (Ferre et al., 2003; Ostergaard et al., 2001). Afterwards, the stability of a peptide-MHC complex (pMHC) can be determined by measuring the amount of b2m associated with the MHC heavy chain over time at 37° C. (Harndahl et al., 2012). The stability of each pMHC, expressed as the half life of b2m associated with the respective heavy chain, was calculated by fitting the data to a one-phase dissociation equation.

HLA-A*02:01 = target: T2, HLA-A*02:01 (human); assay: UV ligand exchange ELISA; exchange yield grade
T2 construct: Peptide-receptive MHC class I monomer made by UV cleavage of a UV-sensitive ligand
In short: (§1)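 Exchange yield assessed by anti-β2m ELISA of UV-exchanged peptide-MHC monomers; absorbance at 450 nm compared with monomer standard curve.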

HLA-A*24:02 = target: T3, HLA-A*24:02 (human); assay: UV ligand exchange ELISA; exchange yield grade
T3 construct: Peptide-receptive MHC class I monomer made by UV cleavage of a UV-sensitive ligand
In short: as §1

HLA-A*01:01 = target: T4, HLA-A*01:01 (human); assay: UV ligand exchange ELISA; exchange yield grade
T4 construct: Peptide-receptive MHC class I monomer made by UV cleavage of a UV-sensitive ligand
In short: as §1

Binder	peptide exchange yield (HLA-A*02:01)	peptide exchange yield (HLA-A*24:02)	also measured
FGLARIYSF (synthetic peptide; also called CDK6 peptide) [peptide FGLARIYSF (SEQ ID NO: 110)]	–	–	mean half-life (T1/2) of peptide-MHC complex [1]: 2 to 4 h
FLLPKVQSI	> 75%	–	–
DLRTKEVVF (synthetic peptide; also called SIPA1L3 peptide) [peptide DLRTKEVVF (SEQ ID NO: 119)]	–	–	mean half-life (T1/2) of peptide-MHC complex [1]: 4 to 6 h
AMPDSPAEV	> 75%	–	–
FEKEKKESL (synthetic peptide; also called SESN3 peptide) [peptide FEKEKKESL (SEQ ID NO: 118)]	–	–	mean half-life (T1/2) of peptide-MHC complex [1]: 6 to 10 h
FTDIDGQVY	–	–	peptide exchange yield (HLA-A*01:01): 50 to 75%
YTDKKSIIY	–	–	peptide exchange yield (HLA-A*01:01): 50 to 75%
ILHAQTLKI	50 to 75%	–	–
YIKTAKKL (synthetic peptide; also called RALGPS2 peptide) [peptide YIKTAKKL (SEQ ID NO: 117)]	–	–	mean half-life (T1/2) of peptide-MHC complex [1]: 4 to 6 h
LYQDRFDYL	–	> 75%	–
ELYQRIYAF (synthetic peptide; also called PIK3R6 peptide) [peptide ELYQRIYAF (SEQ ID NO: 115)]	–	–	mean half-life (T1/2) of peptide-MHC complex [1]: 4 to 6 h
RLIAKEMNI	> 75%	–	–
VPPKKHLL (synthetic peptide; also called TRRAP peptide) [peptide VPPKKHLL (SEQ ID NO: 120)]	–	–	mean half-life (T1/2) of peptide-MHC complex [1]: 2 to 4 h
KYLADLPTL	–	> 75%	–
ILAAVETRL	50 to 75%	–	–
KLLGYDVHV	50 to 75%	–	–
TLKIRAEVL (synthetic peptide; also called RALGPS2 peptide) [peptide TLKIRAEVL (SEQ ID NO: 116)]	–	–	mean half-life (T1/2) of peptide-MHC complex [1]: 6 to 10 h
FSLEDLVRI	20 to 50%	–	–
KYIEYYLVL	–	> 75%	–
RYLDEINLL	–	50 to 75%	–
RFYLLTEHF	–	50 to 75%	–
ILAIRQNAL (synthetic peptide; also called AGPAT5 peptide) [peptide ILAIRQNAL (SEQ ID NO: 108)]	–	–	mean half-life (T1/2) of peptide-MHC complex [1]: 4 to 6 h

Binder	peptide exchange yield (HLA-A*02:01)	peptide exchange yield (HLA-A*24:02)	also measured
IFKEHNFSF	–	> 75%	–
KAYNRVIFV	50 to 75%	–	–
KLSDNILKL	> 75%	–	–
IFVARLYYF	–	> 75%	–
FLINTNSEL	> 75%	–	–
RPKKVNTL (synthetic peptide; also called ZBTB24 peptide) [peptide RPKKVNTL (SEQ ID NO: 121)]	–	–	mean half-life (T1/2) of peptide-MHC complex [1]: 2 to 4 h
FLFDKLLLI	> 75%	–	–
IYFSNTHFF	–	50 to 75%	–
EYNTIKDKF	–	50 to 75%	–
QAAQRTAL (synthetic peptide; also called AFF3 peptide) [peptide QAAQRTAL (SEQ ID NO: 107)]	–	–	mean half-life (T1/2) of peptide-MHC complex [1]: 4 to 6 h
YSDKEFAGSY	–	–	peptide exchange yield (HLA-A*01:01): > 75%
FAFSGVLRA	20 to 50%	–	–
HNALRILTF (synthetic peptide; also called NUP210 peptide) [peptide HNALRILTF (SEQ ID NO: 114)]	–	–	mean half-life (T1/2) of peptide-MHC complex [1]: 4 to 6 h
LYSDIGHLL	–	50 to 75%	–
RFPPTPPLF	–	> 75%	–
KLGPVAVSI	> 75%	–	–
LGHVRYVL (synthetic peptide; also called AGPAT5 peptide) [peptide LGHVRYVL (SEQ ID NO: 109)]	–	–	mean half-life (T1/2) of peptide-MHC complex [1]: 2 to 4 h
DANSRTSQL (synthetic peptide; also called MAP3K1 peptide) [peptide DANSRTSQL (SEQ ID NO: 113)]	–	–	mean half-life (T1/2) of peptide-MHC complex [1]: 6 to 10 h
APLLRHWEL (synthetic peptide; also called HLA-DOA peptide) [peptide APLLRHWEL (SEQ ID NO: 112)]	–	–	mean half-life (T1/2) of peptide-MHC complex [1]: 2 to 4 h
FLLPKVQSIQL	50 to 75%	–	–
KYSSGFRNI	–	50 to 75%	–

More lines, main results first:

peptide exchange yield (HLA-A*02:01)	peptide exchange yield (HLA-A*24:02)	Binder	also measured
–	50 to 75%	VFLPSEGFNF	–
> 75%	–	SLFEGIYTI	–
> 75%	–	SLYVQQLKI	–
50 to 75%	–	SLMDLQERL	–
–	50 to 75%	TYVENLRLL	–
> 75%	–	YLLPSVVLL	–
> 75%	–	SLADVHIEV	–
–	20 to 50%	SFQSKATVF	–
–	> 75%	RYLGKNWSF	–
> 75%	–	YLNEKSLQL	–
–	> 75%	YYLSHLERI	–
–	> 75%	TYPQLEGFKF	–
50 to 75%	–	VMLQINPKL	–
–	> 75%	SYADNILSF	–
